Common to all, as to assay: ELISA; dose-response: host component coated as in the single-dose assay; increasing concentrations of recombinant protein (0–6 µM LipL21, 0–1.5 µM LipL41) in PBS-BSA, 2 h 37°C; KD from non-linear regression, one site-specific binding (GraphPad Prism 7)
The target in assay [1] is plasminogen (human plasma) (human).
Assay [2] has as its target plasma fibronectin (human plasma) (human).
For assay [3], the target named is fibrinogen (human plasma) (human) (UniProt P02671).
A further assay has as its target collagen IV.
Assay [4] addresses E-cadherin (human recombinant) (human) (UniProt P12830).
Assay [5] concerns the target elastin (human aorta) (human) (UniProt P15502).
Assay [6] has as its target vitronectin (human plasma) (human).
Assay [7] has as its target collagen type I (rat tail) (rat) (UniProt P02454).
The target of assay [8] is laminin (human placenta) (human).

pKd: −log10 of the molar value.

The record followed here is publication PMC8632080.

Chain of UniProt P15502 (P15502 27-786): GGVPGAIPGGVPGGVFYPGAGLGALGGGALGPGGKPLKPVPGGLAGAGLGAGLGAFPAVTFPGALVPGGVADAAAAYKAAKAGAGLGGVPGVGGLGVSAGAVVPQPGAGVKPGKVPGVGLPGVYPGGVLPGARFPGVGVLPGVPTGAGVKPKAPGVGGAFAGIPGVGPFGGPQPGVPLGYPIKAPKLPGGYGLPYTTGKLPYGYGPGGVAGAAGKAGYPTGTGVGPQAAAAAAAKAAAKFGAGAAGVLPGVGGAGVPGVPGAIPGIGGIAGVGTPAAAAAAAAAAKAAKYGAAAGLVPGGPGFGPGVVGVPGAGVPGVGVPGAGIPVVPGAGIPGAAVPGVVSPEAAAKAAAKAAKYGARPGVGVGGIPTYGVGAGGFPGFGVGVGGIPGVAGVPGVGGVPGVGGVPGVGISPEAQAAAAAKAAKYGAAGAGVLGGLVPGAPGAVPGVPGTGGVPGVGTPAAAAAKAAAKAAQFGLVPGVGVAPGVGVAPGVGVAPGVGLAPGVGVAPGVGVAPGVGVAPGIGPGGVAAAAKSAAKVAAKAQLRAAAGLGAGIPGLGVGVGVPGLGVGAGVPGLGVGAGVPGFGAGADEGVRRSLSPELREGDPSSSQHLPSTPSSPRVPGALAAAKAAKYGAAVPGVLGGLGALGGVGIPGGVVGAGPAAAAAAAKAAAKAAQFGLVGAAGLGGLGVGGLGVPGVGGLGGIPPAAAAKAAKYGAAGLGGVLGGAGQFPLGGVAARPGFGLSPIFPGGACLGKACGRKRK
Chain of UniProt P02454 (P02454 152-1207, chain 1 of 2): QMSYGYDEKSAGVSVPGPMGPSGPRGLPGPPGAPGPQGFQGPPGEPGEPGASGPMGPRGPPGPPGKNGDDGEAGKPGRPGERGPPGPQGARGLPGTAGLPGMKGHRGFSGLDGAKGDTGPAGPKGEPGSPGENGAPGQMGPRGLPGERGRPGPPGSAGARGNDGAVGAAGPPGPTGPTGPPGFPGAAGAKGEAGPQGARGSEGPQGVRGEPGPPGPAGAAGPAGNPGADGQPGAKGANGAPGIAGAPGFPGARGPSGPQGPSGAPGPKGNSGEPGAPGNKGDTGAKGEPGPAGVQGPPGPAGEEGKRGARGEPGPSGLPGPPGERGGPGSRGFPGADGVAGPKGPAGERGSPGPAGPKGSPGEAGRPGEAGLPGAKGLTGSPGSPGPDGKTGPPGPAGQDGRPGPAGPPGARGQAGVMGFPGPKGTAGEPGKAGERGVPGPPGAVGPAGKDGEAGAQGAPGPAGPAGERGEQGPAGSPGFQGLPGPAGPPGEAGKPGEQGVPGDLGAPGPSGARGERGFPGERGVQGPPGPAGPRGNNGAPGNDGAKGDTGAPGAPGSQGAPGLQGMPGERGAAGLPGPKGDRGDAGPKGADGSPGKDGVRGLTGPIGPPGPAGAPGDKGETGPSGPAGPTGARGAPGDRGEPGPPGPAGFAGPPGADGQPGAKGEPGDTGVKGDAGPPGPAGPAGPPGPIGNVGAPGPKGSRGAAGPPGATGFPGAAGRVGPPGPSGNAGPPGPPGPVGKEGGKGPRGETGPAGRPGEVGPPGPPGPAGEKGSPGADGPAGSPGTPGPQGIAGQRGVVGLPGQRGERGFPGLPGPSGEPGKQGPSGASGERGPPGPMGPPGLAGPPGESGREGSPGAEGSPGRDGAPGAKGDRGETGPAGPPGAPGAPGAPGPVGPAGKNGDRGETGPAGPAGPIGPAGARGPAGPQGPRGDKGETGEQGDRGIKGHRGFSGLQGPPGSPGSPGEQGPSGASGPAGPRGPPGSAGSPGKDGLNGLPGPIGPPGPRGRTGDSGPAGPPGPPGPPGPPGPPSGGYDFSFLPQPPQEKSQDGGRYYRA
Chain of UniProt P02454 (P02466 86-1125, chain 2 of 2, further chain): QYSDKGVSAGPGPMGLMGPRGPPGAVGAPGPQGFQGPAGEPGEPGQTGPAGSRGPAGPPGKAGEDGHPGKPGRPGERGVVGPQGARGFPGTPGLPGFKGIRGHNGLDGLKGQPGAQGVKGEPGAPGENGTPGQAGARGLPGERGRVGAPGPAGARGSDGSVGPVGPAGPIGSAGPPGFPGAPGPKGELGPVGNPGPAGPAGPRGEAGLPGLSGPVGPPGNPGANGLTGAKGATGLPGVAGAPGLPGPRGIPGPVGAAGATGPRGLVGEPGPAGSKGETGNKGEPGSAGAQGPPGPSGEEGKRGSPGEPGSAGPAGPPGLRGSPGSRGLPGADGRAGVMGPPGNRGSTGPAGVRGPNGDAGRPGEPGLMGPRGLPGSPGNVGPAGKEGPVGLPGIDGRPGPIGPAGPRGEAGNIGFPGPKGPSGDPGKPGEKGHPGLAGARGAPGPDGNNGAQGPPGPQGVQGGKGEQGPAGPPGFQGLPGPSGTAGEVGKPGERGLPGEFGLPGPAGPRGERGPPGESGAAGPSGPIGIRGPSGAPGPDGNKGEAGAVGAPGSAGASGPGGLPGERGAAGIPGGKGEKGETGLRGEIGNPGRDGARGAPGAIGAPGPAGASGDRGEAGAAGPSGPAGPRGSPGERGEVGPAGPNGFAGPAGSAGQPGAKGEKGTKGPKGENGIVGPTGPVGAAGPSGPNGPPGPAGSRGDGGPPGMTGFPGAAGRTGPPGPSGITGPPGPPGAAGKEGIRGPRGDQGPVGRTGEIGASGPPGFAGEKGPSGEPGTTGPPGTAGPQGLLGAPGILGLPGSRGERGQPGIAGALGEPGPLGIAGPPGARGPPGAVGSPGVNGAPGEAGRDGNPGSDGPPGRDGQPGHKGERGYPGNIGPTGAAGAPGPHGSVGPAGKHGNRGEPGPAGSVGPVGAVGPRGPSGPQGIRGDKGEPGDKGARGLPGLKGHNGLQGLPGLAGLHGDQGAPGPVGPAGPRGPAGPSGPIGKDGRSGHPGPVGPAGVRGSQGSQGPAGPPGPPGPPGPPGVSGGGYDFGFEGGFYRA
Chain of UniProt P02671 (P02671 36-866, chain 1 of 3): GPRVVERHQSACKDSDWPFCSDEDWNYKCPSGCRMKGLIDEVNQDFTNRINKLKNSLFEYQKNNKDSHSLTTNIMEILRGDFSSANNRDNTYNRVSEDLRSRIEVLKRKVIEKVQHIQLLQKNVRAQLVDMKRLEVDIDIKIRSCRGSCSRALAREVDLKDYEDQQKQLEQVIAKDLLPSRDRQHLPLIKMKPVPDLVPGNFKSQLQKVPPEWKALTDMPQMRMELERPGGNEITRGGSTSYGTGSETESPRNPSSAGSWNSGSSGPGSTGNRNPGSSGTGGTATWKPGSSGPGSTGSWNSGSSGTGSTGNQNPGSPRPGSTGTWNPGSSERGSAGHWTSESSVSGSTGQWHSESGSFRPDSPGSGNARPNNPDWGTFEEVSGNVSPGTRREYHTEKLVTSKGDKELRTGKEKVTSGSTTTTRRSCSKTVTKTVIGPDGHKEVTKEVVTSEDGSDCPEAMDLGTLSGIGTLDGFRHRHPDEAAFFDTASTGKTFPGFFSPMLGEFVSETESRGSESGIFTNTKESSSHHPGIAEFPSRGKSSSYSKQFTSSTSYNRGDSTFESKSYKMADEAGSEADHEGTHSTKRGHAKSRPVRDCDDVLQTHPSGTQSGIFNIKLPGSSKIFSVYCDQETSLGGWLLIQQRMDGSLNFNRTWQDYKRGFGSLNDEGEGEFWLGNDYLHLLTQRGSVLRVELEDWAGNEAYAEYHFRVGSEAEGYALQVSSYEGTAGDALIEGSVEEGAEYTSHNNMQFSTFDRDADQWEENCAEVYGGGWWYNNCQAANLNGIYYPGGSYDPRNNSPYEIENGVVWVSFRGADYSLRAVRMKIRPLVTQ
Chain of UniProt P02671 (P02675 45-491, chain 2 of 3, further chain): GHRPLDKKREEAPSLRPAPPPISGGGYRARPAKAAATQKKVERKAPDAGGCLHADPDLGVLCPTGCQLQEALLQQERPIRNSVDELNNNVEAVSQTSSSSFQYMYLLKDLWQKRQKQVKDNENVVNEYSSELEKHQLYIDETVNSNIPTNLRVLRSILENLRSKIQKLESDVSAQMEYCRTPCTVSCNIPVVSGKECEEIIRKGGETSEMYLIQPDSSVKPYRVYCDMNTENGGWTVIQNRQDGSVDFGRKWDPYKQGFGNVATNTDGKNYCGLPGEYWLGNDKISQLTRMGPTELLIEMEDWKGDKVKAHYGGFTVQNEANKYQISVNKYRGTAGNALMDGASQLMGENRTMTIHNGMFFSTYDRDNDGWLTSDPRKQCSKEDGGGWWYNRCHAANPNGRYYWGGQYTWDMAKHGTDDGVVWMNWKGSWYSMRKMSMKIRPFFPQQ
Chain of UniProt P02671 (P02679 27-453, chain 3 of 3, further chain): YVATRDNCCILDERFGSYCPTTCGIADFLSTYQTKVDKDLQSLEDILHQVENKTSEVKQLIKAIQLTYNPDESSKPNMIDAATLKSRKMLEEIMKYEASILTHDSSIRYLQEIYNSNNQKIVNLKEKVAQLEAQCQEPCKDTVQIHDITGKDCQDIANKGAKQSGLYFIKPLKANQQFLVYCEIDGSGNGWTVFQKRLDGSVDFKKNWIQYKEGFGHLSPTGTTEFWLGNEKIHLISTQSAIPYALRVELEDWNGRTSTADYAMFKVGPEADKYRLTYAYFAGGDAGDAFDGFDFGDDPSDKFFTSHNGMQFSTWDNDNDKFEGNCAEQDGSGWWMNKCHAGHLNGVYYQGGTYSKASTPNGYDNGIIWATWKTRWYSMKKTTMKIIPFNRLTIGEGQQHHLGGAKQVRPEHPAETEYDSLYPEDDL

With “recombinant LipL21 (LIC10011) (natural protein)”, the pKd in assay [1] is 7.86; in [2], 5.59; in assay [3], 5.95; with collagen IV it was 7.27; in assay [4] it was 6.83; in [5], 6.77. Further, the pKd is 6.37 in assay [6], 5.21 in assay [7] and 6.54 in assay [8].

In the case of “recombinant LipL41 (LIC12966) (natural protein)”, the pKd was 6.27 with collagen IV, 5.86 in assay [4], 5.57 in [5] and 6.51 in assay [8].
